Experimental data from US20250361274A1, “PEPTIDE AND PEPTIDE-CONTAINING AGENT” (PEPTIDREAM INC., priority 2022, published 2025).
Numbered stars: 1 amine (or outer) side, 2 acyl side, 3 side chain; on linkers, the order of the positions; unused ones are H or OH. Bridge positions count the residues as written; N and C are the ends. Square brackets hold non-standard residues; d marks the D form. Ends that are not written are not given here. KCOpipzaa = N6-(4-(carboxymethyl)piperazine-1-carbonyl)-L-lysine, O=C(NCCCC[C@H](N[*:1])C(=O)[*:2])N1CCN(CC(=O)[*:3])CC1; 3Pal(6-Ph) = N[C@@H](Cc1ccc(-c2ccccc2)nc1)C(=O)O; Phe(4-COOH) = N[C@@H](Cc1ccc(C(=O)O)cc1)C(=O)O; Bip = N[C@@H](Cc1ccc(-c2ccccc2)cc1)C(=O)O; Abu(4,4,4-F3) = N[C@@H](CC(F)(F)F)C(=O)O; Phe(4-F) = N[C@@H](Cc1ccc(F)cc1)C(=O)O; Hyp = O=C(O)[C@@H]1C[C@@H](O)CN1; NMeF = CN[C@@H](Cc1ccccc1)C(=O)O; hCit = NC(=O)NCCCC[C@H](N)C(=O)O; 4Pal = N[C@@H](Cc1ccncc1)C(=O)O; Cha = N[C@@H](CC1CCCCC1)C(=O)O; Abu = CC[C@H](N)C(=O)O; βAla = NCCC(=O)O

Assays:
BMP4 = target: T1, BMP4 (Homo sapiens, UniProt P12644); experiment: BMP4 signal transduction inhibitory activity: SMAD1 phosphorylation by BMP4 stimulus, AlphaLISA SureFire, A549 cells; format: cell-based; conditions: for aLISA BMP4: A549 cells; for aLIZA BMP4 (0.2 nM) % inh / aLIZA BMP4 (0.2 nM) % Inh: peptide conc. in assay 0.02, 0.2, 2 nM, class symbols; for aLIZA BMP4 (0.2 nM) % Inh: SMAD1 phosphorylation by BMP4 stimulus; for aLISA BMP4 (0.2 nM) % inh: peptide conc. in assay 0.2, 2, 20 nM
T1 sequence (P12644 293-408): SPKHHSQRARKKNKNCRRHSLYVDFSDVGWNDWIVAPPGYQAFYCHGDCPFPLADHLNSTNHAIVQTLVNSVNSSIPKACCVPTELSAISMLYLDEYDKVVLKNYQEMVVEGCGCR

BMP7 = target: T2, BMP7 (Homo sapiens, UniProt P18075); experiment: BMP7 signal transduction inhibitory activity: SMAD1 phosphorylation by BMP7 stimulus, A549 cells; format: cell-based; conditions: for aLISA BMP7: A549 cells; for aLIZA BMP7 (10 nM) % inh / aLIZA BMP7 (10 nM) % Inh: class symbols; for aLIZA BMP7 (10 nM) % Inh: SMAD1 phosphorylation by BMP7 stimulus; for aLISA BMP7 (10 nM) % inh: peptide conc. in assay 1, 10, 100 nM
T2 sequence (P18075 293-431): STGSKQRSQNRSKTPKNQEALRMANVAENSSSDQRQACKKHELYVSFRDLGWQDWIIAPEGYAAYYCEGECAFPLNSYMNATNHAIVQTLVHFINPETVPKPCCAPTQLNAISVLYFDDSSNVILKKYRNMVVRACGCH
Procedure, shortened: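 Inhibition is read as reduced BMP7-driven SMAD1 phosphorylation in human A549 cells, with the BMP7 stimulus at 10 nM. Three-point peptide concentrations spanned 1–1,000 nM depending on the peptide series. Some peptides received eight-point, 1/3-ratio titrations from 100 nM or 1,000 nM, alongside a Noggin control.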

[1] = inhibition of SMAD1 phosphorylation by BMP4 stimulus, peptides of Synthesis 2, classes A-C, ND
[2] = inhibition of SMAD1 phosphorylation by BMP7 stimulus, peptides of Synthesis 2, classes A-D, ND
[3] = SMAD1 phosphorylation, peptides of Synthesis 2, peptide 0.02, 0.2, 2 nM
[4] = 10 nM BMP7, peptides of Synthesis 2, peptide 1, 10, 100 nM
[5] = BMP7 10 nM stimulus, peptide conc. in assay 100, 300, 1000 nM
[6] = peptide conc. in assay 10, 100, 1000 nM
[7] = SMAD1 phosphorylation, BMP4 0.2 nM
[8] = SMAD1 phosphorylation, BMP7 10 nM

94 ({CH2CO}-A[KCOpipzaa]VYV[KCOpipzaa]R[Bip]PYV[Bip]Y[Phe(4-COOH)][Phe(4-COOH)]SC[βAla][dE]-OH; thioether N-17; not fully specified) [compound 94]
aLISA BMP4 (BMP4; [1]): A (showed an inhibitory activity of 50% or more in a zone to which the peptide was added to in an amount of 0.2 nM)
aLISA BMP7 (BMP7; [2]): C (showed less than 50% of inhibitory activity in 10 nM-addition zone and showed 50% or more of inhibitory activity in 100 nM-addition zone)

76 ({CH2CO}-E[KCOpipzaa]VYV[KCOpipzaa][KCOpipzaa][Bip]PYP[Bip][Phe(4-F)][Phe(4-COOH)][4Pal]SCG-NH2; thioether N-17; not fully specified) [compound 76]
aLISA BMP4 (BMP4; inhibition of SMAD1 phosphorylation by BMP4 stimulus, AlphaLISA, class by peptide concentration zone): C (showed an inhibitory activity of less than 50% in 0.2 nM-addition zone and showed an inhibitory activity of 50% or more in 2 nM-addition zone were defined as B or C)
aLISA BMP7 (BMP7; inhibition of SMAD1 phosphorylation by BMP7 stimulus, AlphaLISA, class by peptide concentration zone): C (showed less than 50% of inhibitory activity in 10 nM-addition zone and showed 50% or more of inhibitory activity in 100 nM-addition zone)

39 ({CH2CO}-AQVYVDK[Bip]PYP[Bip]Y[Phe(4-COOH)][Phe(4-COOH)]SCG-NH2; thioether N-17; not fully specified) [compound 39]
aLISA BMP4 (BMP4; [3]): C (showed an inhibitory activity of less than 50% in 0.2 nM-addition zone and showed an inhibitory activity of 50% or more in 2 nM-addition zone were defined as B or C)
aLISA BMP7 (BMP7; [4]): ND (the inhibitory activity was less than 30% at the maximum concentration evaluated)

286 (ERV[Phe(4-COOH)]VDR[3Pal(6-Ph)][KCOpipzaa]Y[Hyp][Bip][4Pal][Phe(4-COOH)][Phe(4-COOH)]SC[βAla][dE]-OH; not fully specified (N-terminus, bridges); also: cyclic peptide, ring not given here) [compound 286]
aLIZA BMP4 (0.2 nM) % inh (BMP4; BMP4 0.2 nM stimulus): B (showed less than 30% of inhibitory activity in 0.02 nM-addition zone and showed 30% or more of inhibitory activity in 0.2 nM-addition zone)
aLIZA BMP7 (10 nM) % inh (BMP7; [5]): G (showed less than 30% of inhibitory activity in 100 nM-addition zone and showed 30% or more of inhibitory activity in 300 nM-addition zone)

250 (ERVYVDR[3Pal(6-Ph)]HYV[Bip]Y[Phe(4-COOH)][Phe(4-COOH)]SCG-NH2; not fully specified) [compound 250]
aLIZA BMP4 (0.2 nM) % Inh (BMP4): C (showed less than 30% of inhibitory activity in 0.2 nM-addition zone and showed 30% or more of inhibitory activity in 2 nM-addition zone)
aLIZA BMP7 (10 nM) % Inh (BMP7; [6]): E (showed less than 30% of inhibitory activity in 100 nM-addition zone and showed 30% or more of inhibitory activity in 1,000 nM-addition zone)

336 (FG[NMeF]G[Bip]GDD[Cha]E[NMeF]LHCG-NH2; not fully specified (N-terminus, bridges)) [compound 336]
aLISA BMP4 (0.2 nM) % inh (BMP4; [7]): ND (the inhibitory activity was less than 30% at the maximum concentration evaluated)
aLISA BMP7 (10 nM) % inh (BMP7; [8]): D (showed less than 30% of inhibitory activity in 10 nM-addition zone and showed 30% or more of inhibitory activity in 100 nM-addition zone)

120 ({CH2CO}-E[KCOpipzaa]VYV[KCOpipzaa]R[3Pal(6-Ph)]SYP[Bip]Y[Phe(4-COOH)][Phe(4-COOH)]SCG-NH2; thioether N-17; not fully specified) [compound 120]
aLISA BMP4 (BMP4; [1]): A (showed an inhibitory activity of 50% or more in a zone to which the peptide was added to in an amount of 0.2 nM)
aLISA BMP7 (BMP7; [2]): ND (the inhibitory activity was less than 30% at the maximum concentration evaluated)

32 (ARVYVDR[3Pal(6-Ph)]PYP[3Pal(6-Ph)]Y[Phe(4-COOH)][Phe(4-COOH)]SCG-NH2; not fully specified (N-terminus, bridges)) [compound 32]
aLISA BMP4 (BMP4; [3]): A (showed an inhibitory activity of 50% or more in a zone to which the peptide was added to in an amount of 0.2 nM)
aLISA BMP7 (BMP7; [4]): ND (the inhibitory activity was less than 30% at the maximum concentration evaluated)

276 (ERV[Phe(4-COOH)]V[KCOpipzaa]R[3Pal(6-Ph)][KCOpipzaa]Y[Hyp][Bip][4Pal][Phe(4-COOH)][Phe(4-COOH)]SCG-NH2; not fully specified) [compound 276]
aLIZA BMP4 (0.2 nM) % inh (BMP4; BMP4 0.2 nM stimulus): B (showed less than 30% of inhibitory activity in 0.02 nM-addition zone and showed 30% or more of inhibitory activity in 0.2 nM-addition zone)
aLIZA BMP7 (10 nM) % inh (BMP7; [5]): ND (the inhibitory activity was less than 30% at the maximum concentration evaluated)

135 ({CH2CO}-ERVYVD[hCit][Bip]PYV[Bip]Y[Phe(4-COOH)][Phe(4-COOH)]SCG-NH2; thioether N-17; not fully specified) [compound 135]
aLISA BMP4 (BMP4; inhibition of SMAD1 phosphorylation by BMP4 stimulus, peptides of Synthesis 1, classes D-F, ND): E (showed less than 50% of inhibitory activity in 0.2 nM-addition zone and showed 50% or more of inhibitory activity in 2 nM-addition zone)
aLISA BMP7 (BMP7; inhibition of SMAD1 phosphorylation by BMP7 stimulus, peptides of Synthesis 1, classes E, F, ND): E (showed 50% or more of inhibitory activity in a zone to which the peptide was added in an amount of 10 nM)

354 (FG[NMeF]G[Bip]GDD[Cha]A[NMeF]LNCG-NH2; not fully specified (N-terminus, bridges)) [compound 354]
aLISA BMP4 (0.2 nM) % inh (BMP4; [7]): ND (the inhibitory activity was less than 30% at the maximum concentration evaluated)
aLISA BMP7 (10 nM) % inh (BMP7; [8]): D (showed less than 30% of inhibitory activity in 10 nM-addition zone and showed 30% or more of inhibitory activity in 100 nM-addition zone)

365 (FG[NMeF]G[Bip]GDE[Cha][Abu][NMeF]LHCG-NH2; not fully specified (N-terminus, bridges)) [compound 365]
aLISA BMP4 (0.2 nM) % inh (BMP4; [7]): ND (the inhibitory activity was less than 30% at the maximum concentration evaluated)
aLISA BMP7 (10 nM) % inh (BMP7; [8]): D (showed less than 30% of inhibitory activity in 10 nM-addition zone and showed 30% or more of inhibitory activity in 100 nM-addition zone)

257 (TRVYVDR[3Pal(6-Ph)]SYV[Bip]Y[Phe(4-COOH)][Phe(4-COOH)]SCG-NH2; not fully specified) [compound 257]
aLIZA BMP4 (0.2 nM) % Inh (BMP4): C (showed less than 30% of inhibitory activity in 0.2 nM-addition zone and showed 30% or more of inhibitory activity in 2 nM-addition zone)
aLIZA BMP7 (10 nM) % Inh (BMP7; [6]): E (showed less than 30% of inhibitory activity in 100 nM-addition zone and showed 30% or more of inhibitory activity in 1,000 nM-addition zone)

271 (ERV[Phe(4-COOH)][Abu(4,4,4-F3)]DR[3Pal(6-Ph)]SYV[Bip][4Pal][Phe(4-COOH)][Phe(4-COOH)]SCG-NH2) [compound 271]
aLIZA BMP4 (0.2 nM) % inh (BMP4; BMP4 0.2 nM stimulus): C (showed less than 30% of inhibitory activity in 0.2 nM-addition zone and showed 30% or more of inhibitory activity in 2 nM-addition zone)
aLIZA BMP7 (10 nM) % inh (BMP7; BMP7 10 nM stimulus, peptide conc. in assay 10, 100, 1000 nM): ND (the inhibitory activity was less than 30% at the maximum concentration evaluated)

80 ({CH2CO}-E[KCOpipzaa]VYVDR[Bip][KCOpipzaa]YP[Bip][Phe(4-F)][Phe(4-COOH)][4Pal]SCG-NH2; thioether N-17; not fully specified) [compound 80]
aLISA BMP4 (BMP4; [1]): A (showed an inhibitory activity of 50% or more in a zone to which the peptide was added to in an amount of 0.2 nM)
aLISA BMP7 (BMP7; [2]): C (showed less than 50% of inhibitory activity in 10 nM-addition zone and showed 50% or more of inhibitory activity in 100 nM-addition zone)

392 ([Phe(4-F)]G[NMeF]G[Bip]GDD[Cha]A[NMeF]LHCG-NH2; not fully specified) [compound 392]
aLISA BMP4 (0.2 nM) % inh (BMP4; BMP4 0.2 nM stimulus): A (showed less than 30% of inhibitory activity in 2 nM-peptide-addition zone and showed 30% or more of inhibitory activity in 20 nM-addition zone)
aLISA BMP7 (10 nM) % inh (BMP7; BMP7 10 nM stimulus): D (showed less than 30% of inhibitory activity in 10 nM-addition zone and showed 30% or more of inhibitory activity in 100 nM-addition zone)

247 (ERV[Phe(4-F)]VDR[3Pal(6-Ph)]SYV[Bip]Y[Phe(4-COOH)][Phe(4-COOH)]SCG-NH2) [compound 247]
aLIZA BMP4 (0.2 nM) % Inh (BMP4): C (showed less than 30% of inhibitory activity in 0.2 nM-addition zone and showed 30% or more of inhibitory activity in 2 nM-addition zone)
aLIZA BMP7 (10 nM) % Inh (BMP7; [6]): E (showed less than 30% of inhibitory activity in 100 nM-addition zone and showed 30% or more of inhibitory activity in 1,000 nM-addition zone)
